Laboratory results reported in IntAct's records for PubMed 25332407.

B1: Nuclear distribution protein nudE homolog 1 (Homo sapiens), Q9NXR1 (parent)
chain: MEDSGKTFSSEEEEANYWKDLAMTYKQRAENTQEELREFQEGSREYEAELETQLQQIETRNRDLLSENNRLRMELETIKEKFEVQHSEGYRQISALEDDLAQTKAIKDQLQKYIRELEQANDDLERAKRATIMSLEDFEQRLNQAIERNAFLESELDEKENLLESVQRLKDEARDLRQELAVQQKQEKPRTPMPSSVEAERTDTAVQATGSVPSTPIAHRGPSSSLNTPGSFRRGLDDSTGGTPLTPAARISALNIVGDLLRKVGALESKLASCRNLVYDQSPNRTGGPASGRSSKNRDGGERRPSSTSVPLGDKGLDTSCRWLSKSTTRSSSSC

Variants of: B1
Details: with 1433e_human YWHAE

Variant	effect of a mutation on the interaction
MEDSGKTFSSEEEEANYWKDLAMTYKQRAENTQEELREFQEGSREYEAELETQLQQIETRNRDLLSENNRLRMELETIKEKFEVQHSEGYRQISALEDDLAQTKAIKDQLQKYIRELEQANDDLERAKRATIMSLEDFEQRLNQAIERNAFLESELDEKENLLESVQRLKDEARDLRQELAVQQKQEKPRTPMPSSVEAERTDTAVQATGSVPSTPIAHRGPSSSLNTPGSFRCGLDDSTGGTPLTPAARISALNIVGDLLRKVGALESKLASCRNLVYDQSPNRTGGPASGRSSKNRDGGERRPSSTSVPLGDKGLDTSCRWLSKSTTRSSSSC [R234C]	with no effect
MEDSGKTFSSEEEEANYWKDLAMTYKQRAENTQEELREFQEGSREYEAELETQLQQIETRNRDLLSENNRLRMELETIKEKFEVQHSEGYRQISALEDDLAQTKAIKDQLQKYIRELEQANDDLERAKRATIMSLEDFEQRLNQAIERNAFLESELDEKENLLESVQRLKDEARDLRQELAVQQKQEKPRTPMPSSVEAERTDTAVQATGSVPATPIAHRGPSSSLNTPGSFRRGLDDSTGGTPLTPAARISALNIVGDLLRKVGALESKLASCRNLVYDQSPNRTGGPASGRSSKNRDGGERRPSSTSVPLGDKGLDTSCRWLSKSTTRSSSSC [S214A]	with no effect
MEDSGKTFSSEEEEANYWKDLAMTYKQRAENTQEELREFQEGSREYEAELETQLQQIETRNRDLLSENNRLRMELETIKEKFEVQHSEGYRQISALEDDLAQTKAIKDQLQKYIRELEQANDDLERAKRATIMSLEDFEQRLNQAIERNAFLESELDEKENLLESVQRLKDEARDLRQELAVQQKQEKPRTPMPSSVEAERTDTAVQATGSVPFTPIAHRGPSSSLNTPGSFRRGLDDSTGGTPLTPAARISALNIVGDLLRKVGALESKLASCRNLVYDQSPNRTGGPASGRSSKNRDGGERRPSSTSVPLGDKGLDTSCRWLSKSTTRSSSSC [S214F]	decreasing interaction strength
MEDSGKTFSSEEEEANYWKDLAMTYKQRAENTQEELREFQEGSREYEAELETQLQQIETRNRDLLSENNRLRMELETIKEKFEVQHSEGYRQISALEDDLAQTKAIKDQLQKYIRELEQANDDLERAKRATIMSLEDFEQRLNQAIERNAFLESELDEKENLLESVQRLKDEARDLRQELAVQQKQEKPRTPMPSSVEAERTDTAVQATGSVPSAPIAHRGPSSSLNTPGSFRRGLDDSTGGTPLTPAARISALNIVGDLLRKVGALESKLASCRNLVYDQSPNRTGGPASGRSSKNRDGGERRPSSTSVPLGDKGLDTSCRWLSKSTTRSSSSC [T215A]	decreasing interaction strength
